Biological target: GST–CDK2/His–CyclinA complex (human | bovine, UniProt P24941 1-298; P30274 1-430)
Assay: co-IP

Chain of GST–CDK2/His–CyclinA complex (P30274 whole entry, one chain of several): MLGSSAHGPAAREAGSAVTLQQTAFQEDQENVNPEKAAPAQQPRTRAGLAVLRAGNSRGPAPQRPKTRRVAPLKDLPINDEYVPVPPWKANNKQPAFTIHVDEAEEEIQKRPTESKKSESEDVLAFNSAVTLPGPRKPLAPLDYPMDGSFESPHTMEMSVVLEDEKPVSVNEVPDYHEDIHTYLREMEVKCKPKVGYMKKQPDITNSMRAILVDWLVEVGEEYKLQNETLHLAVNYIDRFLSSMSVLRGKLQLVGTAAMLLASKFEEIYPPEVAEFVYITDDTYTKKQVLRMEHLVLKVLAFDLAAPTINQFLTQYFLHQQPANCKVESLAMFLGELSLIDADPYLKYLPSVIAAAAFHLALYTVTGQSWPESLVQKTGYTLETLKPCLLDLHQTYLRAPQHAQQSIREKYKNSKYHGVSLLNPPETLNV

fold increase of binding against non-phosphorylated GST–p57: ~4 fold
B1: GST–p57 (mouse, wild type) phosphorylated in vitro by activated p38 SAPK (natural protein)
chain: MERLASSDTFPVIARSSACRSLFGPVDHEELGRELRMRLAELNAEDQNRWDFNFQQDVPLRGPGRLQWMEVDSESVPAFYRETVQVGRCRLQLGPRPPPVAVAVIPRSGPPAGEAPDGLEEAPEQPPSAPASAVVAEPTPPATPAPASDLTSDPIPEVTLVATSDPTPDPIPDANPDVATRDGEEQVPEQVSEQGEESGAEPGDELGTEPVSEQGEEQGAEPVEEKDEEPEEEQGAEPVEEQGAEPVEEQNGEPVEEQDENQEQRGQELKDQPLSGIPGRPAPGTAAANANDFFAKRKRTAQENKASNDVPPGCPSPNVAPGVGAVEQTPRKRLR
modifications: phosphothreonine at T143 (phosphorylated in vitro by activated GST–p38 SAPK)

— article PMC3395087 (The EMBO Journal, 2012)
